Assay results reported in publication PMC5794803, “IGFBPL1 Regulates Axon Growth through IGF-1-mediated Signaling Cascades” (Scientific Reports, 2018).

Target: recombinant mouse IGF-1 (insulin-like growth factor 1) (mouse, UniProt P05017 49-118)
Experiment: cell-based or functional assay

Sequence of recombinant mouse IGF-1 (insulin-like growth factor 1) (P05017 49-118): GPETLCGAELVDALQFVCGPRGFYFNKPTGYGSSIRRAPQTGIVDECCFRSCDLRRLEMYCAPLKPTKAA

B1: recombinant mouse IGFBPL1 (insulin-like growth factor binding protein-like 1) (natural protein, UniProt Q80W15 18-270, looked up)
chain: LGLRDAGRRHPECSPCQQDRCPAPSPCPAPWISARDECGCCARCLGAEGASCGGPVGSRCGPGLVCASRASGTAPEGTGLCVCAQRGAVCGSDGRSYSSICALRLRARHAPRAHHGHLHKARDGPCEFAPVVLMPPRDIHNVTGTQVFLSCEVKAVPTPVITWKKVKHSPEGTEGLEELPGDHVNIAVQVRGGPSDHETTSWILINPLRKEDEGVYHCHAANAIGEAQSHGTVTVLDLNRYKSLYSSVPGDLL
PI3K phosphorylation (Western blot) in P10 RGCs after co-administration of IGF-1 and IGFBPL1, compared to the control group: 6 fold
mTOR phosphorylation (Western blot) in P10 RGCs after co-administration of IGF-1 and IGFBPL1, compared to the control group: 3 fold
